From patent US11312781B2, “Antigen binding molecules that bind LIGHT” (Capella Bioscience Ltd., priority 2018, dated 2022)

Target: T1, LIGHT protein (Homo sapiens, UniProt O43557, K214E)
T1 construct: amino acids 74-240 LIGHT (R&D Systems, 664-LI-025); purchased R&D Systems 664-LI-025
Test: Hydrogen-deuterium exchange (HDX) mass spectrometry epitope mapping
Assay type: binding
Design: Difference uptake (3B04-control) / Uptake 3B04: unit not given here
Details: for Uptake 3B04: average deuterium uptake n = 3
Procedure: The LIGHT protein (R&D Systems 664-LI-025) was solubilised in PBS buffer at a final concentration of 8 μM, whereas the antibodies were maintained at 20 μM in PBS. For complex formation the LIGHT protein was incubated with each antibody separately in 1:5 ratio on ice and HDX measurements were performed 30 min after incubation. All data were recorded on a waters Synapt G2Si equipped with a HDX platform. […] […] Subsequently each sample was quenched with 50 μL of 2M guanidinium chloride in at pH 2. The samples were passed through a pepsin column for 5 min to digest the protein and peptides were separated using a reverse phase chromatography. Data were analysed with DynamX software. Peptides were selected with a maximum length of 15 amino acids and a 5 ppm mass accuracy error. […] The analysis was repeated 3 times for each mAb.
HDX was used as a starting point to identify the epitope of antibody 3B04 binding to the LIGHT protein. A sequence coverage of 69.2% of the LIGHT protein was achieved and the regions that were not observed were due to the presence of a […] and glycosylation. The glycans were not removed from LIGHT in order to preserve the structure of the protein in a native state. […] (Difference in uptake between 3B04 and control mAb, Table 16, values in bold). […] The results from HDX spectrometry were used as a guide to identify a region of interest that was subsequently analysed using alanine scanning.

[1] = LIGHT peptide 194-202 SRVWWDSSF, Exposure (sec) 0.33
[2] = LIGHT peptide 194-202 SRVWWDSSF, Exposure (sec) 1.00
[3] = LIGHT peptide 194-202 SRVWWDSSF, Exposure (sec) 5.00
[4] = LIGHT peptide 194-202 SRVWWDSSF, Exposure (sec) 30.00
[5] = LIGHT peptide 195-202 RVWWDSSF, Exposure (sec) 0.33
[6] = LIGHT peptide 195-202 RVWWDSSF, Exposure (sec) 1.00
[7] = LIGHT peptide 195-202 RVWWDSSF, Exposure (sec) 5.00
[8] = LIGHT peptide 195-202 RVWWDSSF, Exposure (sec) 30.00
[9] = LIGHT peptide 197-202 WWDSSF, Exposure (sec) 0.33
[10] = LIGHT peptide 197-202 WWDSSF, Exposure (sec) 1.00
[11] = LIGHT peptide 197-202 WWDSSF, Exposure (sec) 5.00
[12] = LIGHT peptide 197-202 WWDSSF, Exposure (sec) 30.00
[13] = LIGHT peptide 203-209 LGGVVHL, Exposure (sec) 0.33
[14] = LIGHT peptide 203-209 LGGVVHL, Exposure (sec) 1.00
[15] = LIGHT peptide 203-209 LGGVVHL, Exposure (sec) 5.00
[16] = LIGHT peptide 203-209 LGGVVHL, Exposure (sec) 30.00
[17] = LIGHT peptide 203-214 LGGVVHLEAGEE, Exposure (sec) 0.33
[18] = LIGHT peptide 203-214 LGGVVHLEAGEE, Exposure (sec) 1.00
[19] = LIGHT peptide 203-214 LGGVVHLEAGEE, Exposure (sec) 5.00
[20] = LIGHT peptide 203-214 LGGVVHLEAGEE, Exposure (sec) 30.00

T1 sequence (O43557 74-240 K214E): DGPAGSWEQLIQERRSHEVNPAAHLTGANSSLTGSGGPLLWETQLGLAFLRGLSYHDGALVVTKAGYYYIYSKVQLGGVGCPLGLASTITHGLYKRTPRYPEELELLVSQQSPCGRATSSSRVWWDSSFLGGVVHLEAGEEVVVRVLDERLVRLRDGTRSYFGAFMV

B1: 3B04: parental mouse anti-membrane LIGHT antibody, VL SEQ ID NO 1, VH SEQ ID NO 5; tested as chimeric human IgG4 mAb (antibody, listed as Homo sapiens, V domains shown)
VH: QVQLQQPGAELVRPGASVTLSCKASGYTFTDYEMHWVKQTPVHGLEWIGEIDPETGDTAYSQKFKGKATLTADKSSSTAYMEFRSLTSEDSAVYYCSRETDYFFDYWGQGTTLTVSS
VL: DIQMTQTPASLSASVGETVTITCGASENIYGALNWYQRKQGKSPQLLIYGATNLADGMSSRFSGSGSGRQYSLKISSLHPDDFATYYCQNVLTTPWTFGGGTKLEIKR
B1 was tested, and the “Difference uptake (3B04-control)” value [1] was −0.296, the “Uptake 3B04” value [1] was 0.744 and the “Difference uptake (3B04-control)” value [2] was −0.443. For the same molecule, the “Uptake 3B04” value [2] was 0.885, the “Difference uptake (3B04-control)” value [3] was −0.405 and the “Uptake 3B04” value [3] was 1.159. For the same molecule, the “Difference uptake (3B04-control)” value [4] was −0.656, the “Uptake 3B04” value [4] was 1.392 and the “Difference uptake (3B04-control)” value [5] was −0.254. For the same molecule, the “Uptake 3B04” value [5] was 0.393, the “Difference uptake (3B04-control)” value [6] was −0.399 and the “Uptake 3B04” value [6] was 0.480. For the same molecule, the “Difference uptake (3B04-control)” value [7] was −0.474, the “Uptake 3B04” value [7] was 0.631 and the “Difference uptake (3B04-control)” value [8] was −0.756. For the same molecule, the “Uptake 3B04” value [8] was 0.805, the “Difference uptake (3B04-control)” value [9] was −0.187 and the “Uptake 3B04” value [9] was 0.240. The “Difference uptake (3B04-control)” value [10] was −0.269, the “Uptake 3B04” value [10] was 0.336 and the “Difference uptake (3B04-control)” value [11] was −0.217. For the same molecule, the “Uptake 3B04” value [11] was 0.501, the “Difference uptake (3B04-control)” value [12] was −0.252 and the “Uptake 3B04” value [12] was 0.603. The “Difference uptake (3B04-control)” value [13] was −0.029, the “Uptake 3B04” value [13] was 0.145 and the “Difference uptake (3B04-control)” value [14] was −0.027. The “Uptake 3B04” value [14] was 0.147, the “Difference uptake (3B04-control)” value [15] was −0.014 and the “Uptake 3B04” value [15] was 0.237. The “Difference uptake (3B04-control)” value [16] was −0.052, the “Uptake 3B04” value [16] was 0.384 and the “Difference uptake (3B04-control)” value [17] was −0.050. The “Uptake 3B04” value [17] was 0.202, the “Difference uptake (3B04-control)” value [18] was −0.033 and the “Uptake 3B04” value [18] was 0.266. The “Difference uptake (3B04-control)” value [19] was −0.087, the “Uptake 3B04” value [19] was 0.399 and the “Difference uptake (3B04-control)” value [20] was −0.081. The “Uptake 3B04” value [20] was 0.807 and the “Epitope defined by HDX” value (soluble LIGHT) was “residues 195-197 of soluble LIGHT”.
